Patent US20060067886A1, “Gastrin receptor-avid peptide conjugates” (priority 1997, published 2006)

How the values were obtained:
[1] = system: PC-3 human tumor xenografts; test: in vivo
Experimental: (§1) In vivo pharmacokinetic studies in human tumor bearing SCID mice. […] The xenograft models were produced by bilateral flank inoculation of 5×10^6 cells (PC-3 or MDA-MB-231 cells) per site. Four to six weeks post inoculation, palpable tumors were observed. At this point, the mice were injected with 4 μCi of the complex in […] of isotonic saline via the tail vein. The mice were euthanized and tissues and organs were excised from the animals at selected times post-injection (p.i.), including 15 minutes, 30 minutes, 1 hour, 4 hours, 24 hours, 48 hours, and 72 hours p.i. Subsequently, the tissues and organs were weighed and counted in a NaI well counter and the percent injected dose (% ID) and % ID/g of each organ or tissue calculated.
(§2) The mice were injected with 4 μCi of the complex in 100 μL of isotonic saline via the tail vein. The mice were euthanized by cervical dislocation. Tissues and organs were excised from the animals following at 1 hour, 4 hour, and 24 hours post-injection (p.i.). Subsequently, the tissues and organs were weighed and counted in a NaI well counter and the percent injected dose (% ID) and % ID/g of each organ or tissue calculated.

in vivo = conditions: SCID, mouse, in vivo, iv, 4 uCi, total radioactivity, Avg % ID, Heart, 24 hrs
Experimental: as §1, §2

[2] = Biodistribution of radiometal-DOTA-BBN conjugates in CF1 normal mice; conditions: CF-1, mouse, in vivo, iv, total radioactivity, 1 hour post-injection; for tissue uptake at 1 h: Avg % ID/gm

## CSCC[C@H](NC(=O)[C@H](CC(C)C)NC(=O)[C@H](Cc1cnc[nH]1)NC(=O)CNC(=O)[C@@H](NC(=O)[C@H](C)NC(=O)[C@H](Cc1c[nH]c2ccccc12)NC(=O)[C@H](CCC(N)=O)NC(=O)CCCCCCCNC(=O)CN1CCN(CC(=O)O)CCN(CC(=O)O)CCN(CC(=O)O)CC1)C(C)C)C(N)=O [90Y-DOTA-8-Aoc-BBN[7-14]NH2] [metal not drawn]
[1]; 1 hr
  Avg % ID, Blood: 0.56 ± 0.20 % ID
  Avg % ID, Carcass: 0.62 ± 0.44 % ID
  Avg % ID, Kidney: 1.22 ± 0.46 % ID
  Avg % ID, L. Intestine: 2.44 ± 0.66 % ID
  Avg % ID, Lung: 0.06 ± 0.03 % ID
  Avg % ID, Muscle: 0.02 ± 0.02 % ID
  Avg % ID, Pancreas: 5.70 ± 1.60 % ID
  Avg % ID, S. Intestine: 4.65 ± 0.98 % ID
  Avg % ID, Spleen: 0.07 ± 0.04 % ID
  Avg % ID, Urine: 57.73 ± 14.52 % ID
  Avg % ID/gm, Blood: 0.34 ± 0.12 % ID/gm
  Avg % ID/gm, Heart: 0.10 ± 0.11 % ID/gm
  Avg % ID/gm, Lung: 0.22 ± 0.12 % ID/gm
  Avg % ID/gm, Muscle: 0.15 ± 0.19 % ID/gm
  Avg % ID/gm, Pancreas: 24.73 ± 4.97 % ID/gm
  Avg % ID/gm, Spleen: 1.09 ± 0.67 % ID/gm
  Avg % ID/gm, Stomach: 1.34 ± 0.64 % ID/gm
  Avg % ID/gm, Tumor: 2.95±0.99 % ID/gm
[1]; 4 hrs
  Avg % ID, Blood: 0.09 ± 0.13 % ID
  Avg % ID, Carcass: 0.14 ± 0.11 % ID
  Avg % ID, Kidney: 0.54 ± 0.25 % ID
  Avg % ID, L. Intestine: 3.33 ± 0.71 % ID
  Avg % ID, Liver: 0.19 ± 0.13 % ID
  Avg % ID, Pancreas: 3.42 ± 0.82 % ID
  Avg % ID, S. Intestine: 2.06 ± 1.27 % ID
  Avg % ID, Spleen: 0.02 ± 0.03 % ID
  Avg % ID, Stomach: 0.18 ± 0.06 % ID
  Avg % ID, Tumor: 0.34 ± 0.22 % ID
  Avg % ID, Urine: 67.02 ± 16.74 % ID
  Avg % ID/gm, Blood: 0.05 ± 0.07 % ID/gm
  Avg % ID/gm, Heart: 0.10 ± 0.14 % ID/gm
  Avg % ID/gm, Kidney: 1.68 ± 0.76 % ID/gm
  Avg % ID/gm, L. Intestine: 5.17 ± 1.85 % ID/gm
  Avg % ID/gm, Liver: 0.18 ± 0.12 % ID/gm
  Avg % ID/gm, Lung: 0.07 ± 0.07 % ID/gm
  Avg % ID/gm, Muscle: 0.07 ± 0.13 % ID/gm
  Avg % ID/gm, Pancreas: 14.02 ± 4.89 % ID/gm
  Avg % ID/gm, S. Intestine: 1.66 ± 0.91 % ID/gm
  Avg % ID/gm, Stomach: 0.55 ± 0.16 % ID/gm
  Avg % ID/gm, Tumor: 1.98±0.66 % ID/gm
[1]; 24 hrs
  Avg % ID, Blood: 0.12 ± 0.14 % ID
  Avg % ID, Feces: 10.71 ± 8.29 % ID
  Avg % ID, Heart: 0.00 ± 0.00 % ID
  Avg % ID, Kidney: 0.17 ± 0.09 % ID
  Avg % ID, L. Intestine: 1.11 ± 0.75 % ID
  Avg % ID, Liver: 0.10 ± 0.03 % ID
  Avg % ID, Lung: 0.00 ± 0.00 % ID
  Avg % ID, Muscle: 0.00 ± 0.01 % ID
  Avg % ID, S. Intestine: 0.51 ± 0.20 % ID
  Avg % ID, Tumor: 0.16 ± 0.09 % ID
  Avg % ID, Urine: 67.62 ± 17.26 % ID
  Avg % ID/gm, Blood: 0.07 ± 0.08 % ID/gm
  Avg % ID/gm, Heart: 0.00 ± 0.00 % ID/gm
  Avg % ID/gm, Kidney: 0.51 ± 0.25 % ID/gm
  Avg % ID/gm, L. Intestine: 1.27 ± 0.92 % ID/gm
  Avg % ID/gm, Liver: 0.08 ± 0.03 % ID/gm
  Avg % ID/gm, Lung: 0.01 ± 0.02 % ID/gm
  Avg % ID/gm, Muscle: 0.02 ± 0.03 % ID/gm
  Avg % ID/gm, Pancreas: 1.80 ± 0.57 % ID/gm
  Avg % ID/gm, Spleen: 0.11 ± 0.13 % ID/gm
  Avg % ID/gm, Stomach: 0.09 ± 0.07 % ID/gm
  Avg % ID/gm, Tumor: 1.08±0.37 % ID/gm
[1]; 48 hrs
  Avg % ID, Blood: 0.10 ± 0.14 % ID
  Avg % ID, Carcass: 0.11 ± 0.17 % ID
  Avg % ID, Heart: 0.02 ± 0.02 % ID
  Avg % ID, Kidney: 0.10 ± 0.04 % ID
  Avg % ID, Pancreas: 0.15 ± 0.04 % ID
  Avg % ID, S. Intestine: 0.16 ± 0.06 % ID
  Avg % ID, Tumor: 0.11 ± 0.07 % ID
  Avg % ID, Urine: 76.74 ± 21.06 % ID
  Avg % ID/gm, Blood: 0.06 ± 0.08 % ID/gm
  Avg % ID/gm, Heart: 0.14 ± 0.19 % ID/gm
  Avg % ID/gm, Kidney: 0.29 ± 0.12 % ID/gm
  Avg % ID/gm, L. Intestine: 0.77 ± 0.15 % ID/gm
  Avg % ID/gm, Muscle: 0.07 ± 0.13 % ID/gm
  Avg % ID/gm, Pancreas: 0.59 ± 0.14 % ID/gm
  Avg % ID/gm, S. Intestine: 0.13 ± 0.04 % ID/gm
  Avg % ID/gm, Spleen: 0.09 ± 0.24 % ID/gm
  Avg % ID/gm, Tumor: 0.58 ± 0.30 % ID/gm
[1]; 72 hrs
  Avg % ID, Blood: 0.11 ± 0.15 % ID
  Avg % ID, Carcass: 0.10 ± 0.11 % ID
  Avg % ID, Kidney: 0.13 ± 0.07 % ID
  Avg % ID, Liver: 0.08 ± 0.11 % ID
  Avg % ID, Lung: 0.00 ± 0.01 % ID
  Avg % ID, Pancreas: 0.08 ± 0.05 % ID
  Avg % ID, S. Intestine: 0.11 ± 0.07 % ID
  Avg % ID, Spleen: 0.02 ± 0.01 % ID
  Avg % ID, Tumor: 0.06 ± 0.06 % ID
  Avg % ID, Urine: 82.97 ± 25.39 % ID
  Avg % ID/gm, Blood: 0.06 ± 0.09 % ID/gm
  Avg % ID/gm, Kidney: 0.43 ± 0.29 % ID/gm
  Avg % ID/gm, L. Intestine: 0.47 ± 0.24 % ID/gm
  Avg % ID/gm, Liver: 0.08 ± 0.11 % ID/gm
  Avg % ID/gm, Lung: 0.02 ± 0.03 % ID/gm
  Avg % ID/gm, Muscle: 0.08 ± 0.19 % ID/gm
  Avg % ID/gm, Pancreas: 0.27 ± 0.17 % ID/gm
  Avg % ID/gm, S. Intestine: 0.08 ± 0.05 % ID/gm
  Avg % ID/gm, Spleen: 0.28 ± 0.26 % ID/gm
  Avg % ID/gm, Stomach: 0.07 ± 0.03 % ID/gm
  Avg % ID/gm, Tumor: 0.46 ± 0.48 % ID/gm

## CSCC[C@H](NC(=O)[C@H](CC(C)C)NC(=O)[C@H](Cc1cnc[nH]1)NC(=O)CNC(=O)[C@@H](NC(=O)[C@H](C)NC(=O)[C@H](Cc1c[nH]c2ccccc12)NC(=O)[C@H](CCC(N)=O)NC(=O)CCCCCCCNC(=O)CN1CCN(CC(=O)O)CCN(CC(=O)O)CCN(CC(=O)O)CC1)C(C)C)C(N)=O [177Lu-DOTA-8-Aoc-BBN[7-14]NH2, metal not drawn]
In vivo
  tissue uptake dose at 24 h: 0.01 %ID

## CSCC[C@H](NC(=O)[C@H](CC(C)C)NC(=O)[C@H](Cc1c[nH]cn1)NC(=O)CNC(=O)[C@@H](NC(=O)[C@H](C)NC(=O)[C@H](Cc1c[nH]c2ccccc12)NC(=O)[C@H](CCC(N)=O)NC(=O)CCCCCCCCCCNC(=O)CN1CCN(CC(=O)O)CCN(CC(=O)O)CCN(CC(=O)O)CC1)C(C)C)C(N)=O [111In-DOTA-11-Aun-BBN[7-14]NH2, metal not drawn]
[2]; Avg % ID, Blood
  tissue uptake dose at 1 h: 0.79 ± 0.2 %ID
[2]; Avg % ID, Carcass
  tissue uptake dose at 1 h: 7.35 ± 1.57 %ID
[2]; Avg % ID, Kidney
  tissue uptake dose at 1 h: 1.07 ± 0.17 %ID
[2]; Avg % ID, L. Intestine
  tissue uptake dose at 1 h: 5.54 ± 2.42 %ID
[2]; Avg % ID, Liver
  tissue uptake dose at 1 h: 2.44 ± 0.5 %ID
[2]; Avg % ID, Pancreas
  tissue uptake dose at 1 h: 11.6 ± 1.14 %ID
[2]; Avg % ID, S. Intestine
  tissue uptake dose at 1 h: 17.8 ± 1.4 %ID
[2]; Avg % ID, Spleen
  tissue uptake dose at 1 h: 0.19 ± 0.04 %ID
[2]; Avg % ID, Stomach
  tissue uptake dose at 1 h: 0.53 ± 0.11 %ID
[2]; Avg % ID, Urine
  dose excreted at 1 h: 53.3 ± 0.9%
[2]; L. Intestine
  tissue uptake at 1 h: 4.34 ± 1.34 %ID/g
[2]; Liver
  tissue uptake at 1 h: 1.22 ± 0.25 %ID/g
[2]; Pancreas
  tissue uptake at 1 h: 26 ± 3.46 %ID/g
[2]; S. Intestine
  tissue uptake at 1 h: 11.1 ± 2.07 %ID/g
[2]; Spleen
  tissue uptake at 1 h: 1.15 ± 0.38 %ID/g
[2]; Stomach
  tissue uptake at 1 h: 1.05 ± 0.25 %ID/g
